The record followed here is PMC12328718.

Series [1] concerns the target T1, SHMT2 WT (UniProt P34897).
T1 sequence: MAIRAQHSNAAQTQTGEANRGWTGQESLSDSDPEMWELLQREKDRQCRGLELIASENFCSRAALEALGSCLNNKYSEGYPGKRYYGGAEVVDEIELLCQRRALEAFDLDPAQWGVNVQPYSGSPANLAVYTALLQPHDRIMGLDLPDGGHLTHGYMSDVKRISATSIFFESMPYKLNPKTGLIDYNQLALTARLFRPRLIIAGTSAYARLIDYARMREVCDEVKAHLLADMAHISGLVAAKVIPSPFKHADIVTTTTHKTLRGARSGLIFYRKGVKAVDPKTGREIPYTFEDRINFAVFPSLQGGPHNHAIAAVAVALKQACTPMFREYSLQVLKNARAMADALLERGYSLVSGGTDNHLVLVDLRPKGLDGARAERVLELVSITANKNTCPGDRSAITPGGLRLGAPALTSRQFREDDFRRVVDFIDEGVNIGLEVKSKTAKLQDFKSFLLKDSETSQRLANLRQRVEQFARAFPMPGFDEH
Description: EMSA. The note with it: EMSA: 20 mM HEPES pH 7.4, 150 mM NaCl, 20 ug/ml BSA, 0.1 ug tRNA, RNase inhibitor, 8% glycerol, 25 C, 30 min; 4% native PAGE in 0.5x TBE. (A gel shift assay detects complexes by their altered migration in electrophoresis.)

The target in series [2] is SHMT2 K281S-R284S. Description: SEC; Superdex 200 column (16/600), last step of the purification; 20 mM Hepes pH 7.2, 250 mM NaCl, 10% glycerol. A general note: Size exclusion chromatography separates by hydrodynamic size, large species first.
Series [3] addresses Serine hydroxymethyltransferase 2 (SHMT2) wild type. Described as above.

What is called Kd is the free concentration of one partner at which half of the binding sites on the other are occupied at equilibrium, for simple one-to-one binding. High values mean weaker binding, low ones tighter binding. “GGGAUAAAGAAAAAAGCGGUGAGUGGGCGAACUACAAUUCCCAAAAGGCCACAAAGGGGCCACCACUACGCAUGCGUAGAUCCCUCCCGUUAGCUUUGGCGCCUCAGCGAGCUCUUCUCGCGCAUGCGUUCUCCGAACGGUCUUCUUCCGACAGCUUGCUGCCCUAGACCAGAGUUGGUGGCUGGACCUCCUGCGACUUCCGAGUUGCG [UTR2 RNA]”: the dissociation constant (Kd) in series [1] amounted to 560 nM.
A word on the stoichiometry N: it is the number of molecules, sites or subunits per partner or assembly. In series [2], SHMT2 K281S-R284S (enzyme) displayed a stoichiometry N of 4.
In the case of “Serine hydroxymethyltransferase 2 (SHMT2) wild type (enzyme)”, the stoichiometry N in series [3] is 4.
